From article PMC4970725

What was measured:
IL-18 (Homo sapiens) = IL-18 (Homo sapiens) (UniProt Q14116); conditions: cited from earlier work
[1] = molecular target: IL-18 receptor on NK-92MI cells (human (endogenous in NK-92MI)) (UniProt Q13478)
IL-18 receptor on NK-92MI cells (human (endogenous in NK-92MI)), sequence (Q13478 19-541, chain 1 of 2): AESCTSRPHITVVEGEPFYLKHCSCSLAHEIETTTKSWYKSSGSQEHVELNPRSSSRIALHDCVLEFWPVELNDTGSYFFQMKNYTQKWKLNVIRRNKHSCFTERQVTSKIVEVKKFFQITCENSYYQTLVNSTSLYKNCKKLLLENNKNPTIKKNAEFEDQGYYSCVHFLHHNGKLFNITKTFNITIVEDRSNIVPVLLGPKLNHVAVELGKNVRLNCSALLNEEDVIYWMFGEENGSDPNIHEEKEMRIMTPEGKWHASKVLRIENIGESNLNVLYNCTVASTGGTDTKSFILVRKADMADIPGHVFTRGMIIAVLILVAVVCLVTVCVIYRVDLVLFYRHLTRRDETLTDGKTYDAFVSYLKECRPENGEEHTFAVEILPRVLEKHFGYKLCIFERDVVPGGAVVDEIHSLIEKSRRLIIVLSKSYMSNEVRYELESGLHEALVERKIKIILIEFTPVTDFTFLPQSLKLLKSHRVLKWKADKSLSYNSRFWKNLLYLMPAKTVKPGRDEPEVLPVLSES
IL-18 receptor on NK-92MI cells (human (endogenous in NK-92MI)), sequence (O95256 20-599, chain 2 of 2, further chain): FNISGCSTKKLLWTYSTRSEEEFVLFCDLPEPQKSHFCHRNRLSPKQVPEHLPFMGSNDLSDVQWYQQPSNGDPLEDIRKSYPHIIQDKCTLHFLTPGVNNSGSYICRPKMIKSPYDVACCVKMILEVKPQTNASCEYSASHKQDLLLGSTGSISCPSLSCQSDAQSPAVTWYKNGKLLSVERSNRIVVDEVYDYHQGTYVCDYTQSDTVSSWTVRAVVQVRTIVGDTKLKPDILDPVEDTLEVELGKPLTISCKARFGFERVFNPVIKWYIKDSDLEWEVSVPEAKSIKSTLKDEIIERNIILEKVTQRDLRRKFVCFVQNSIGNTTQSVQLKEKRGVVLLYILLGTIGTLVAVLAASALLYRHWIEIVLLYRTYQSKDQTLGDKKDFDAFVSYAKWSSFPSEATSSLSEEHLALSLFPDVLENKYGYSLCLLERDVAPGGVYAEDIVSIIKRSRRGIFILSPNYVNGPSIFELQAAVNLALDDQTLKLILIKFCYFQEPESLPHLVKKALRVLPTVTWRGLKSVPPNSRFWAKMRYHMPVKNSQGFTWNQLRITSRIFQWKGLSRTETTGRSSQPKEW

IL-18 (Homo sapiens), sequence (Q14116 37-193): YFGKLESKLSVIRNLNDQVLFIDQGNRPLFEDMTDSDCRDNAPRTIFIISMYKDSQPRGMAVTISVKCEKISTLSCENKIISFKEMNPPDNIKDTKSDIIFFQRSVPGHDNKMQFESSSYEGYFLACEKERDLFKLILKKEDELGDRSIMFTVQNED
IL-18BP, sequence (O95998 31-194): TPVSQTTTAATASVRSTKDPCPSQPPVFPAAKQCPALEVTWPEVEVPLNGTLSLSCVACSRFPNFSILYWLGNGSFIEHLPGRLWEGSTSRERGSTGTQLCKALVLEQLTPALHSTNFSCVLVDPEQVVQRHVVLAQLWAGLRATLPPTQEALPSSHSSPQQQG

IFN-γ in the supernatant (ELISA) of NK-92MI cells stimulated with 0.5 ng/ml IL-12 and 12.5-200 ng mL^-1 IL-18; activity against wild-type IL-18 at 200 ng mL^-1 (times higher than wild-type IL-18) [1] | Substance | Kd (IL-18 (Homo sapiens))
 | IL-18BP (from UniProt O95998) | 0.4 nM
9.3 | recombinant mature human interleukin-18 E6K (ligand) | 
3.9 | recombinant mature human interleukin-18 T63A (ligand) | 
